Reference: patent US7341859B2, “ADH from Rhodococcus erythropolis” (Degussa AG, priority 2002, dated 2008)

Columns and labels:
[1] = test system: alcohol dehydrogenase from R. erythropolis (RE-ADH, new ADH expr. in E. coli); experiment: Relative/specific activity of substrates with the new ADH from R. erythropolis (photometric NADH test); assay type: biochemical, Rhodococcus erythropolis
Method: In this case, as is normal, the measured activity for one compound is set at 100% and the activity/activities of the other compound(s) is determined in relation thereto. From the relative activities when compared with other substrates, it can then be recognised whether such another substrate is accepted to a greater or lesser extent.
A first purification can be achieved by anion exchange chromatography (MonoQ-Material, Pharmacia) (mobile buffer: 50 mM TEA buffer, pH 7.0; elution with a NaCl gradient of 0-1 M).
For the activity test, the cells were harvested (15 min centrifuging at 14000 rpm, 4° C.) and degraded after resuspension with 100 mM KPi buffer, pH 6.0 (1.5 ml of buffer per 1 g of cells). For the purposes of degradation, the suspension was treated with ultrasound (2×30 sec. power 100%, pulse 50), then the cell broth was centrifuged. The supernatant liquid is the soluble crude extract, the sediment is the insoluble fraction.
For a comparison using relative activities, the activity of the two enzymes was given with respect to phenylacetaldehyde=100%.
In this case, the relative activity is given with respect to the activity measured for acetophenone.

[2] = test system: aldehyde reductase from Corynebacterium sp.; experiment: Activity of substrates with aldehyde reductase from Corynebacterium sp. (Itoh et al.); assay type: biochemical, Corynebacterium sp. ST-10; conditions: Corynebacterium enzyme
Text: When comparing the gene sequence for ADH from R. erythropolis with sequences in the databases, it was shown that RE-ADH has a high degree of homology with an aldehyde reductase from Coyrnebacterium sp. In the publication on aldehyde reductase, a number of biochemical properties of this enzyme are described (Itoh, N., R. Morihama, J. Wang, K. Okada and N. Mizuguchi (1997), Purification and characterisation of phenylacetaldehyde reductase from a styrene-assimilating Corynebacterium strain, ST-10, Appl. Environ. Microbiol. 63: 3783-378). Some of the (aldehyde) substrates described in that publication were therefore also converted using RE-ADH and compared using the relative activities of the reductase. […] Further comparisons of the two enzymes using the published data material are not meaningful because the enzyme from Corynebacterium was tested exclusively with phenylacetaldehyde as substrate, but RE-ADH has hitherto been characterised using p-Cl-acetophenone.
A comparison of RE-ADH with the aldehyde reductase from Corynebacterium sp. with regard to the activity for acetophenone reduction and a few aldehydes. Data on the enzyme from Corynebacterium were taken from the publication by Itoh et al. (see above), data on RE-ADH are our own measurements (homogeneous=very pure homogeneous enzyme). […]

[3] = test system: aldehyde reductase from Corynebacterium sp.; conditions: phenylacetaldehyde = 100%; cited from earlier work
[4] = Thermal stability of the ADH (activity after incubation); assay type: physicochemical
Method: The advantageous aspects and differences mentioned above with regard to improvement in the stability, as compared with previously known alcohol dehydrogenases from R. erythropolis are summarised in Table 5 and in FIG. 4. For better comparison, the relevant enzyme activity measured at 45° C. was set at 100%.
Here, for the very pure new alcohol hydrogenase, high thermal stabilities were produced over a wide temperature range extending up to 65° C. The stability values in this case are […]

[5] = Specific enzyme activity, standard test with p-Cl-acetophenone and NADH; assay type: biochemical
Method: For elution, a falling ammonium sulfate gradient (1-0 M) was used; the desired enzyme then eluted at almost 0 M ammonium sulfate. […] The desired protein eluted on application of a falling ammonium sulfate gradient (1-0 M) at about 0.1 M ammonium sulfate. […] The supernatant liquid is the soluble crude extract, the sediment is the insoluble fraction. […] For expression, E. coli BL21 (DE3) was used as host. Recombinant cells were multiplied in the medium LBcam at 37° C. At an OD600 of 0.5, expression was induced with 25 μM IPTG, then the cells were multiplied for 12 h at 30° C. The cells were harvested after centrifuging for 15 min at 5000 rpm, the sediment was resuspended in 100 mM Kpi buffer (1.5 ml per 1 g of cells) and broken down using ultrasound.

[6] = pH optimum for the activity and stability of RE-ADH; assay type: biochemical; conditions: 4° C. and room temperature, 1 and 2 days, pH range 7.5-8.5, tris-HCl buffer 0.1 M
Text: The pH optimum for RE-ADH is at pH 6.0 for the reduction reaction (measured using p-Cl-acetophenone).

[7] = Activity of immobilised RE-ADH (Eupergit, Ni-NTA) with p-Cl-acetophenone, GC; assay type: biochemical; conditions: for activity of the immobilised enzyme: 30° C.
Method: Eupergit C® and Eupergit C 250L® were used in parallel batches, each being loaded with partially purified RE-ADH (literature reference relating to Eupergit immobilisation: E. Katchalski-Katzir, D. M. Kraemer, J. Mol. Catal. B: Enzym. 2000, 10, 157). The following was used for the test: • 1.5 mM p-Cl-acetophenone (dissolved in 0.1 M Na formate buffer, 0.05 M KPi buffer, pH 6.0) • 0.5 mM NAD • 30 mg immobilisate • 1 U/ml formate dehydrogenase (FDH)
These test materials were incubated at 30° C., a sample (100 μl) was taken from each mix after 0, 5, 10 and 15 min, this was extracted with 100 μl of chloroform and the chloroform phase was analysed for any phenylethanol formed using gas chromatography. The activity of the immobilised enzyme can be calculated from the kinetics of phenylethanol formation and values of 11.8 U/g support for Eupergit C® and 8 U/g of support for Eupergit C 250L® were obtained. With respect to the amount of enzyme used, this corresponded to coupling yields of 1% (Eupergit ®) and 0.8% (Eupergit C 250L®). • b) Immobilising on Ni-NTA
Recombinant E. coli JM105/pRE-ADH5 cells were broken down in an imidazole-containing buffer (50 mM NaH2PO4; 300 mM NaCl; 10 mM imidazole, pH 8.0) and a crude extract was prepared in the way described previously. For immobilisation, 1 ml of enzyme solution (13 U/ml RE-ADH, crude extract from the culture E. coli JM105pRE-ADH5; 8 mg/ml of protein) was added to 300 mg of Ni-NTA support material (Quiagen) and incubated for 10 min at 0° C. (ice bath). After centrifuging the suspension, 3 U/ml could still be detected as residual activity in the supernatant liquid as non-bonded enzyme. The immobilisate was reacted with p-Cl-acetophenone to detect the bonded activity.
For this purpose, the following were used per 1 ml of total volume:
3 mM p-Cl-acetophenone (substrate; dissolved in 100 mM Na formate, 50 mM Kpi buffer pH 6.0)
1 U formate dehydrogenase
The test batch was incubated in the same way as described above (immobilisation on Eupergit®), samples were taken and these were analysed using gas chromatography. […] Taking into account the fact that this test was performed with 30 mg of immobilisate and that 10 U RE-ADH had bonded to 300 mg of support material, 1 U was thus introduced in the test batch with the 30 mg. Since an activity of 0.21 U was reported, an immobilisation yield of 21% was obtained. The enantiomer purity (ee value) of the alcohol formed with the immobilisate was >99%.

With CCCCCCCC=O [Caprylic aldehyde] the “activity towards caprylic aldehyde as multiple of that towards acetophenone (so in the source)” value ([1]; RE-ADH) was “about 5 times”, the relative activity ([1]; phenylacetaldehyde = 100%) was 522% and the “activity towards caprylic aldehyde as multiple of that with respect to acetophenone (so in the source)” value [2] was 12 times. The relative activity [3] was 1220%.

B1: RE-ADH: alcohol dehydrogenase (ADH, RE-ADH) from Rhodococcus erythropolis, Seq. ID NO: 2, tetrameric; also with C-terminal His-Tag or immobilised (protein, listed as Rhodococcus erythropolis)
chain: MKAIQYTRIGAEPELTEIPKPEPGPGEVLLEVTAAGVCHSDDFIMSLPEEQYTYGLPLTLGHEGAGKVAAVGEGVEGLDIGTNVVVYGPWGCGNCWHCSQGLENYCSRAQELGINPPGLGAPGALAEFMIVDSPRHLVPIGDLDPVKTVPLTDAGLTPYHAIKRSLPKLRGGSYAVVIGTGGLGHVAIQLLRHLSAATVIALDVSADKLELATKVGAHEVVLSDKDAAENVRKITGSQGAALVLDFVGYQPTIDTAMAVAGVGSDVTIVGIGDGQAHAKVGFFQSPYEASVTVPYWGARNELIELIDLAHAGIFDIAVETFSLDNGAEAYRRLAAGTLSGRAVVVPGL
modifications: optional C-terminal His-tag or immobilisation
notes: ID NO: 2, tetrameric; also with C-terminal His-Tag or immobilised
In the case of B1, the “enzyme activity after incubation” value ([4]; 10 min at 45° C.) is reported as “(110 U/ml)”, the “relative enzyme activity after incubation” value (shortened to “relative enzyme activity”) ([4]; 10 min at 45° C.) is reported as 95% and the “enzyme activity after incubation” value ([4]; 10 min at 50° C.) is reported as “(110 U/ml)”. The “relative enzyme activity” value ([4]; 10 min at 50° C.) was 95%, the “enzyme activity after incubation” value ([4]; 10 min at 55° C.) was “(115 U/ml)” and the “relative enzyme activity” value ([4]; 10 min at 55° C.) was 99%. For the same molecule, the “enzyme activity after incubation” value ([4]; 10 min at 60° C.) was “(112 U/ml)”, the “relative enzyme activity” value ([4]; 10 min at 60° C.) was 97% and the “enzyme activity after incubation” value ([4]; 10 min at 65° C.) was “(116 U/ml)”. For the same molecule, the “relative enzyme activity” value ([4]; 10 min at 65° C.) was 100%, the “activity in the crude extract” value ([5]; crude extract from R. erythropolis) was “about 2.5 U/mg” and the enzyme activity ([5]; hexa-histidine group at the C-terminus, pRE-ADH5 in E. coli JM105) was 7 U/mg. The “ADH activity in the crude extract” value ([5]; plasmid pKK223-3, E. coli JM 105, soluble fraction) was 6 U/mg, the “ADH activity in the crude extract” value ([5]; plasmid pKK223-3, E. coli JM 105, soluble fraction, listed as ADH according to the invention) was “about 6 U/mg” and the “ADH activity in the crude extract” value ([5]; vector pKA1, E. coli BL21 (DE3), cell-free crude extract) was 70 U/mg. The “ADH activity in the crude extract” value ([5]; vector pKA1, E. coli BL21 (DE3), cell-free crude extract, listed as ADH) was 70 U/mg, the “ADH activity in the crude extract” value ([5]; vector pKA1, E. coli BL21 (DE3), cell-free crude extract, listed as ADH according to the invention) was “about 70 U/mg” and the deactivation on storage [6] was “no deactivation”. The “enantiomer purity (ee value) of the alcohol formed with the immobilisate” value ([7]; His-Tag enzyme on Ni-NTA) was > 99%, the “activity of the immobilisate” value ([7]; His-Tag enzyme on Ni-NTA, 30 mg immobilisate, 3 mM p-Cl-acetophenone) was 0.21 U and the “activity of the immobilised enzyme” value ([7]; immobilised on Eupergit C 250L) was 8 U/g of support. The “activity of the immobilised enzyme” value ([7]; immobilised on Eupergit C) was 11.8 U/g support.
